Laboratory results: patent publication US20150147330A1

Molecular target: human glypican-3 (GPC3), cell-associated (human) (UniProt P51654)
Test: flow cytometry on cells expressing native GPC3, MFI titration, Scatchard plot (Prism)

Question: For YP7 (antibody), which Kd is on record?
Answer: 300 pM
